In article PMC12846780:

Target: IL7R (human (endogenous in PBMC T cells, SiHa, Daudi)) (UniProt P16871)
Chain of UniProt P16871 (P16871 21-459): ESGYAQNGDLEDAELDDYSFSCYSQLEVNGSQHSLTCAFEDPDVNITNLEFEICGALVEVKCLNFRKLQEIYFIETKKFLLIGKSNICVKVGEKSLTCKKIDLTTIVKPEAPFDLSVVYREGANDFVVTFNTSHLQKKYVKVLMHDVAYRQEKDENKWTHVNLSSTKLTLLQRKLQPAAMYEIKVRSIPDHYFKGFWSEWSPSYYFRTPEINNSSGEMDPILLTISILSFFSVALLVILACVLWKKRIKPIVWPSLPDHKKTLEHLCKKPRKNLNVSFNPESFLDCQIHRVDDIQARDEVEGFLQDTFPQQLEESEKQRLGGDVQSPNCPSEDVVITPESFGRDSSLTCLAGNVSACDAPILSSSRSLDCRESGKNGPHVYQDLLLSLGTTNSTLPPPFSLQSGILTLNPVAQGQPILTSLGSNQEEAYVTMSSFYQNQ

Q: For “IL7-Bevacizumab kineTAC (from UniProt P13232 26-177) (bispecific antibody)”, which percent of T cells in PBMCs positive for VEGF-647 after 24 h with 10 nM kineTAC and 25 nM VEGF-647 (four donors) is on record?
A: 85.4%
